The values below come from patent publication US20210403579A1 (DELINIA, published 2021).

Residue numbers refer to the chain shown, from its start.

The test addresses T1, Human ST2 (human, UniProt Q01638 19-328, limits assumed).
T1 construct: also called human ST2 protein; Interleukin 1 receptor-like 1
T1 sequence (looked up): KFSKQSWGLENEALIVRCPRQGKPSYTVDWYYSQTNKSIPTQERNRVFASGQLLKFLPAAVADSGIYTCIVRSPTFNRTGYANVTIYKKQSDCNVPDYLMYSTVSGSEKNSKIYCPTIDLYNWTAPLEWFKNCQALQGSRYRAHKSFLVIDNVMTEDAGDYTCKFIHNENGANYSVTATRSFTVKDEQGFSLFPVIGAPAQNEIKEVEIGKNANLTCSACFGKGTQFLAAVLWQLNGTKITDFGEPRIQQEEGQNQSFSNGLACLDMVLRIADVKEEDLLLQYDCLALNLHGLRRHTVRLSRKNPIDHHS
Nature of the test: SPR (Carterra), antibody immobilized, ST2 analyte. The protocol:
Binding of the reformatted human ST2 antibodies to the human and mouse ST2 proteins was evaluated by surface plasmon resonance (SPR), using a high throughput antibody screening and characterization platform from Carterra (Salt Lake City, Utah).

The term Kd denotes the constant that tells how readily two partners part at equilibrium. Read a high Kd as lower affinity. The koff is the first-order rate constant of dissociation. As a reminder, the kon is the second-order rate constant of association. High values mean faster complex formation, low ones slower complex formation.

B1: Human ST2 IgG1 Antibody 33 (antibody, V domains shown)
VH: QVQLVQSGAEVKKPGSSVKVSCKASGDTFDTYAISWVRQAPGQGLEWMGGIIPIFGTANYAQKFQGRVTITADESTSTAYMELSSLRSEDTAVYYCARSRGRGYSYGSGLFDYWGQGTLVTVSS
VL: DIVMTQSPLSLPVTPGEPASISCRSSESLLITNGFNYIDWYLQKPGQSPQLLIYLGSNRAAGVPDRFSGSGSGTDFTLKISRVEAEDVGVYYCMQALQTPITFGQGTKVEIKR
notes: IgG1; also called ST2 Antibody 33
As to B1, the dissociation constant (Kd) came out at 0.529 µM, the off-rate constant (koff) was 0.13 s⁻¹ and the kon worked out at 240000 M⁻¹ s⁻¹.

B2: Human ST2 IgG1 Antibody 49 (antibody, V domains shown)
VH: QVQLVQSGAEVKKPGASVKVSCKASGGTLSSYAISWVRQAPGQGLEWMGGISPYNGKANYAEKLQGRVTMTRDTSTSTVYMELSSLRSEDTAVYYCAIRSIAAREGVYYYYMDVWGKGTTVTVSS
VL: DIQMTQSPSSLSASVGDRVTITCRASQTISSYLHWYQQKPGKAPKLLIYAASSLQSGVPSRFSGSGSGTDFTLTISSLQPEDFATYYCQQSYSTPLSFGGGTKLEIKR
notes: IgG1; also called ST2 Antibody 49
Consider B2, for which the Kd was found to be 0.269 µM, the koff turned out to be 0.085 s⁻¹ and the kon came to 320000 M⁻¹ s⁻¹.

B3: Human ST2 IgG1 Antibody 42 (antibody, V domains shown)
VH: QVQLVQSGAEVKKPGASVKVSCKASGYTFNSHWVHWVRQAPGQGLEWMGWISAYNGNTNYAQKLQGRVTMTRDTSTSTVYMELSSLRSEDTAVYYCASGDYPYYYYGMDVWGQGTTVTVSS
VL: DIQMTQSPSSLSASVGDRVTITCRASQGVANWLAWYQQKPGKAPKLLIYSASNLQSGVPSRFSGSGSGTDFTLTISSLQPEDFATYYCQQSSSFPLTFGQSTRLEIKR
notes: IgG1; also called ST2 Antibody 42
On to B3, for which the Kd amounted to 0.278 µM, the dissociation rate constant (koff) was 0.088 s⁻¹ and the kon was determined as 320000 M⁻¹ s⁻¹.

B4: Human ST2 IgG1 Antibody 34 (antibody, V domains shown)
VH: QVQLVQSGAEVKKPGASVKVSCKASGQTFTDYAINWVRQAPGQGLEWMGWMNPNSGNTGYAQKFQGRVTMTRDTSTSTVYMELSSLRSEDTAVYYCARETLEQQLPFDYWGQGTLVTVSS
VL: DIQMTQSPSSLSASVGDRVTITCRASQSISSWLAWYQQKPGKAPKLLIYAASTLQSGVPSRFSGSGSGTDFTLTISSLQPEDFATYYCQQYYSTLYTFGQGTKVEIKR
notes: IgG1; also called ST2 Antibody 34
As for B4, the Kd amounted to 0.109 µM, the koff stood at 0.0011 s⁻¹ and the kon was found to be 10000 M⁻¹ s⁻¹.

B5: Human ST2 IgG1 Antibody 40 (antibody, V domains shown)
VH: QVQLVQSGAEVKKPGASVKVSCKASGYTFTSYYIHWVRQAPGQGLEWMGIINPSADTTTYAQQFQGRVTMTRDTSTSTVYMELSSLRSEDTAVYYCARTPGNYGGNSLGYYYYYGMDVWGQGTLVTVSS
VL: B4 VL with I29V, S30G, S31T, Y91S, T94S, L95P, Y96L, Q100P, E105D
notes: IgG1; also called ST2 Antibody 40
In turn, B5 returned a dissociation constant (Kd) of 0.691 µM, a koff of 0.12 s⁻¹ and a kon of 180000 M⁻¹ s⁻¹.

B6: Human ST2 IgG1 Antibody 37 (antibody, V domains shown)
VH: EVQLLESGGGLVQPGGSLRLSCAASGFTFTDAWMNWVRQAPGKGLEWVSTISVSVGVTYYADSVKGRFTISRDNSKNTLYLQMNSLRAEDTAVYYCATIGSMATIRKGATDAFDIWGQGTLVTVSS
VL: B4 VL with S28R, S30N, W32Y, A34N, Y91S, L95P, Y96P, Q100G
notes: IgG1; also called ST2 Antibody 37
For the molecule B6, the Kd was 0.138 µM, the koff amounted to 0.085 s⁻¹ and the association rate constant (kon) is 620000 M⁻¹ s⁻¹.

B7: Human ST2 IgG1 Antibody 44 (antibody, V domains shown)
VH: EVQLLESGGGLVKPGGSLRLSCAASGFTFSSYWMSWVRQAPGKGLEWVSAISGTAINTYYADSVKGRFTISRDDSKNTLYLQMNSLKTEDTAVYYCARVRRDSSGGGAFDIWGQGTMVTVSS
VL: B4 VL with S28G, S31N, W32N, A34N, T53S, S56T, Y91S, L95P, Y96P
notes: IgG1; also called ST2 Antibody 44
For B7, the Kd was determined as 0.1 µM, the dissociation rate constant (koff) amounted to 0.024 s⁻¹ and the kon was 240000 M⁻¹ s⁻¹.

B8: Human ST2 IgG1 Antibody 36 (antibody, V domains shown)
VH: QVQLVQSGAEVKKPGASVKVSCKASGYTFTSYGISWVRQAPGQGLEWMGWIDPNSGGTNYAQKFQGRVTMTRDTSTSTVYMELSSLRSEDTAVYYCARDDWFSGDLDYWGQGTLVTVSS
VL: B4 VL with S28G, S30D, T53K, S56G, Y91G, L95P, Y96I, E105D
notes: IgG1; also called ST2 Antibody 36
For B8, binding was characterised by a dissociation constant (Kd) of 0.264 µM, the koff is 0.14 s⁻¹ and the kon stood at 510000 M⁻¹ s⁻¹.

B9: Human ST2 IgG1 Antibody 43 (antibody, V domains shown)
VH: QVQLVQSGAQVKKPGASVKVSCKASGYTFSSYYIHWVRQAPGQGLEWMGWINPHSGGTNYGQEFQGRVTMTRDTSTSTVYMELSSLRSEDTAVYYCARDSSGMGATIGYWGQGTLVTVSS
VL: B4 VL with I29V, S30N, S31R, W32R, Y91G, Y92N, T94F, L95P, Y96I
notes: IgG1; also called ST2 Antibody 43
In turn, B9 displayed a Kd of 0.146 µM, an off-rate constant (koff) of 0.0074 s⁻¹ and a kon of 51000 M⁻¹ s⁻¹.

B10: Human ST2 IgG1 Antibody 48 (antibody, V domains shown)
VH: EVQLLQSGGGLVQPGGSLRLSCAASEFTFSNAWMSWVRQAPGKGLEWVSTISGTSRYTYYADSVKGRFTISRDNSKNSLYLQMNSLRAEDTAVYYCARDQDGRLDYWGQGTLVTVSS
VL: B4 VL with S28N, S30G, A50R, Y91S, L95P
notes: IgG1; also called ST2 Antibody 48
B10 gave a Kd of 0.146 µM, a koff of 0.024 s⁻¹ and a kon of 170000 M⁻¹ s⁻¹.

B11: Human ST2 IgG1 Antibody 35 (antibody, V domains shown)
VH: QVQLVQSGAEVKKPGASVKVSCKASAYTFTSYGISWLRQAPGQGLEWMGWINPNSGNTGYAHKFQGRVTMTRDTSTSTVYMELSSLRSEDTAVYYCARGGSGWPTWGQGTLVTVSS
VL: DIQMTQSPSSLSASVGDRVTITCQASQDISNYLNWYQQKPGKAPKLLIYGASSLQSGVPSRFSGSGSGTDFTLTISSLQPEDFATYYCQQANTFPFTFGPGTKVDIKR
notes: IgG1; also called ST2 Antibody 35
B11 had a Kd of 0.104 µM, a koff of 0.016 s⁻¹ and a kon of 160000 M⁻¹ s⁻¹.

B12: Human ST2 IgG1 Antibody 46 (antibody, V domains shown)
VH: EVQLLESGGGLVKPGGSLRLSCAASGFTFSSYWMSWVRQAPGKGLEWVSSISGTSNYMYYADSVKGRFTISRDDSKNTLYLQMNSLKTEDTAVYYCARDRGFLGYFDYWGQGTLVTVSS
VL: B11 VL with D28Y, S53T, A91S, N92Q, T93S, F94T, F96L
notes: IgG1; also called ST2 Antibody 46
Molecule B12 gave a Kd of 0.339 µM, a koff of 0.042 s⁻¹ and a kon of 120000 M⁻¹ s⁻¹.

B13: Human ST2 IgG1 Antibody 50 (antibody, V domains shown)
VH: QVQLVQSGAEVKKPGASVKVSCKASGAAFNTVAISWVRQAPGQGLEWMGWMNPNSGNTGYAQKFQGRVTMTRDTSTSTVYMELSSLRSEDTAVYYCARTPAAAGTVYFDYWGQGTLVTVSS
VL: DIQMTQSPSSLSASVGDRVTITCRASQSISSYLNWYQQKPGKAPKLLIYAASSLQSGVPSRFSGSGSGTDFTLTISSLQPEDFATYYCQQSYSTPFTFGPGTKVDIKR
notes: IgG1; also called ST2 Antibody 50
Molecule B13 showed a Kd of 0.213 µM, a koff of 0.075 s⁻¹ and a kon of 350000 M⁻¹ s⁻¹.

B14: Human ST2 IgG1 Antibody 45 (antibody, V domains shown)
VH: QVQLVQSGAEVKKPGSSVKVSCKASGGTFSSYAISWVRQAPGQGLEWMGGIVPIFETANYAQKFQGRVTITADESTSTAYMELSSLRSEDTAVYYCARDTPNFDYWGQGTLVTVSS
VL: not shown
notes: IgG1; also called ST2 Antibody 45
B14 gave a Kd of 0.022 µM, a koff of 0.02 s⁻¹ and a kon of 920000 M⁻¹ s⁻¹.

B15: Human ST2 IgG1 Antibody 65 (antibody, V domains shown)
VH: B14 VH with V52I, E56G, T100N, N102D
VL: DIQMTQSPSSLSASVGDRVTITCRASQGISNYLNWYQQKPGKAPKLLIYAASSLQSGVPSRFSGSGSGTDFTLTISSLQPEDFATYYCQQSYRTPITFGQGTRLEIKR
notes: IgG1; also called ST2 Antibody 65
Molecule B15 registered a Kd of 0.076 µM, a koff of 0.055 s⁻¹ and a kon of 730000 M⁻¹ s⁻¹.

B16: Human ST2 IgG1 Antibody 47 (antibody, V domains shown)
VH: QVQLVQSGAEVKKPGSSVKVSCKASGYTFTNYYMHWVRQAPGQGLEWMGGIIPIFGTANYAQKFQGRVTITADESTSTAYMELSSLRSEDTAVYYCARGGYYDSSQFDIWGQGTMVTVSS
VL: not shown
notes: IgG1; also called ST2 Antibody 47
For B16, binding was put at a Kd of 0.413 µM, the koff turned out to be 0.12 s⁻¹ and the kon came to 300000 M⁻¹ s⁻¹.

B17: Human ST2 IgG1 Antibody 39 (antibody, V domains shown)
VH: QVQLVQSGAEVKKPGSSVKVSCKASGYTFTSYYMQWVRQAPGQGLEWMGGIIPIFGTANYAQKFQGRVTITADESTSTAYMELSSLRSEDTAVYYCARARFGAVDYWGQGTLVTVSS
VL: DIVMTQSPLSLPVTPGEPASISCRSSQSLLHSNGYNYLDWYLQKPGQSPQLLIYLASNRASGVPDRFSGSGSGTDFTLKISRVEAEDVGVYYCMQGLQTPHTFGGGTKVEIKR
notes: IgG1; also called ST2 Antibody 39
Molecule B17 gave a Kd of 0.057 µM, a koff of 0.022 s⁻¹ and a kon of 390000 M⁻¹ s⁻¹.

B18: Human ST2 IgG1 Antibody 38 (antibody, V domains shown)
VH: QVQLVQSGAEVKKPGSSVKVSCKASGGTFSSYAISWVRQAPGQGLEWMGTIIPMFGIADYAQKFQGRVTITADESTSTAYMELSSLRSEDTAVYYCARSSRSSSWYNWYFDLWGRGTLVTVSS
VL: EIVMTQSPATLSVSPGERATLSCRASQSISSSYLAWYQQKPGQAPRLLIYGASTRATGIPARFSGSGSGTEFTLTISSLQSEDFAVYYCQQYYTTPWTFGQGTKVEIKR
notes: IgG1; also called ST2 Antibody 38
Molecule B18 came in with a Kd of 0.017 µM, a koff of 0.0053 s⁻¹ and a kon of 310000 M⁻¹ s⁻¹.

B19: Human ST2 IgG1 Antibody 41 (antibody, V domains shown)
VH: QVQLVQSGAEVKKPGSSVKVSCKASGYTFTDYQMHWVRQAPGQGLEWVGVINPGGGSTTYAQTFQGRVTITADESTSTAYMELSSLRSEDTAVYYCARGGVEYSSSWDYYYYYGMDVWGQGTTVTVSS
VL: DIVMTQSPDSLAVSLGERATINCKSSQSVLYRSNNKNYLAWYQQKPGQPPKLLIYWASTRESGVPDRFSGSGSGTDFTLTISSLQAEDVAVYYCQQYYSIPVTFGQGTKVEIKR
notes: IgG1; also called ST2 Antibody 41
Consider B19, for which the Kd turned out to be 0.099 µM, the koff is 0.0024 s⁻¹ and the kon was determined as 24000 M⁻¹ s⁻¹.
